Patent publication US6998239 (CHEMOCENTRYX, dated 2006)

T1: human CCX CKR with N-terminal Flag epitope, stably expressed on HEK293 cells (human, UniProt Q9NPB9 1-350)
T1 construct: also called HEK293-CCX CKR cells
T1 sequence: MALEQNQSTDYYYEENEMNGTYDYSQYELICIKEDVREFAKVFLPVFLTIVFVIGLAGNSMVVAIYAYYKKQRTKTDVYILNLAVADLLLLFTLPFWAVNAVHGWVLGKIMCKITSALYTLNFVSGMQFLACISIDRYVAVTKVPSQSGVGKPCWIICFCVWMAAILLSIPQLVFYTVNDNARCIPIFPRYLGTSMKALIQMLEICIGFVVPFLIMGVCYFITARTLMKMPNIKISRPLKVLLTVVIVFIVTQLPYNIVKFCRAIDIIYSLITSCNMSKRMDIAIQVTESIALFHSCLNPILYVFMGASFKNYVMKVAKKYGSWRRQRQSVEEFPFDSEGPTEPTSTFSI


How the values were obtained:
[1] = target: T1, human CCX CKR with N-terminal Flag …; assay: displacement of 125I-ELC or 125I-TECK from CCX CKR transfectants, 200 nM cold chemokine
[2] = target: T1, human CCX CKR with N-terminal Flag …; assay: radioligand binding competition on CCX CKR stable transfectants, Scatchard transformation
[3] = target: T1, human CCX CKR with N-terminal Flag …; assay: radioligand binding competition on CCX CKR stable transfectants (similar experiments)

Row | Binder | binding result [1] | other results
1 | human TECK (thymus expressed chemokine) (ligand, UniProt O15444 24-150, looked up, 125I label where used as radioligand) QGVFEDCCLAYHYPIGWAVLRRAWTYRIQEVSGSCNLPAAIFYLPKRHRKVCGNPKSREVQRAMKLLDARNKVFAKLHHNTQTFQAGPHAVKKLSSGNSKLSSSKFSNPISSSKRNVSLLISANSGL | binds | –
2 | human SLC (secondary lymphoid-tissue chemokine) (ligand, UniProt O00585 24-134, looked up, also called 6Ckine) SDGGAQDCCLKYSQRKIPAKVVRSYRKQEPSLGCSIPAILFLPRKRSQAELCADPKELWVQQLMQHLDKTPSPQKPAQGCRKDRGASKTGKKGKGSKGCKRTERSQTPKGP | – | binding result [2]: binds
3 | murine ELC (ligand, UniProt O70460 26-108, looked up) GANDAEDCCLSVTQRPIPGNIVKAFRYLLNEDGCRVPAVVFTTLRGYQLCAPPDQPWVDRIIRRLKKSSAKNKGNSTRRSPVS | binds | –
4 | mMIP-1gamma (murine macrophage inflammatory protein 1 gamma) (ligand, UniProt P51670 22-122, looked up, also called mMIP-1γ; CCF18) QITHATETKEVQSSLKAQQGLEIEMFHMGFQDSSDCCLSYNSRIQCSRFIGYFPTSGGCTRPGIIFISKRGFQVCANPSDRRVQRCIERLEQNSQPRTYKQ | binds | –
5 | murine TECK (ligand, UniProt O35903 24-144, looked up) QGAFEDCCLGYQHRIKWNVLRHARNYHQQEVSGSCNLRAVRFYFRQKVVCGNPEDMNVKRAMRILTARKRLVHWKSASDSQTERKKSNHMKSKVENPNSTSVRSATLGHPRMVMMPRKTNN | binds | –
6 | human ELC (EBI1 ligand chemokine) (ligand, UniProt Q99731 22-98, looked up, 125I label where used as radioligand, also called MIP-3beta; MIP3beta) GTNDAEDCCLSVTQKPIPGYIVRNFHYLLIKDGCRVPAVVFTTLRGRQLCAPPDQPWVERIIQRLQRTSAKMKRRSS | – | binding result [2]: binds
7 | murine CTACK (ligand, UniProt Q9Z1X0 26-120, looked up, also called mCTACK; CCL27) LPLPSSTSCCTQLYRQPLPSRLLRRIVHMELQEADGDCHLQAVVLHLARRSVCVHPQNRSLARWLERQGKRLQGTVPSLNLVLQKKMYSHPQQQN | – | Kd [3]: ~9 nM
